Reference: patent US20140227251A1 (AbbVie / Abbott, published 2014)
Positions count from the first letter of the chain named. Names may count otherwise. One block for each binder: values may come before it.

Molecular target: T1, Human TNF-α (R&D Systems) (human, UniProt P01375 77-233, labeled with Alexa Fluor 647 in the FACS assays)
T1 construct: also called Alexa Fluor 647-labeled TNF-α; TNF-α-AF647
Experiment: surface plasmon resonance (Biacore)

T1 sequence (P01375 77-233 limits assumed): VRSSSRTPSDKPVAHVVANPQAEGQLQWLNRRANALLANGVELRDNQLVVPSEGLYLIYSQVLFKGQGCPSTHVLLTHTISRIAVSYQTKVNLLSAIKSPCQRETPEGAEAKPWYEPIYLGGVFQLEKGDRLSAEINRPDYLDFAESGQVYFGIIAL

- binding result: binds
B1: D2E7 combination variant Y32K/SS-R30I (antibody, V domains shown)
VH: not shown
VL: DIQMTQSPSSLSASVGDRVTITCRASQSIINYLSWYQQKPGKAPKLLIYAASTLQSGVPSRFSGSGSGTDFTLTISSLQPEDVATYYCQRYNRAPYTFGQGTKVEIK
notes: VL-SS backbone = G28S and A34S in CDR-L1 (Kabat); Expressed and purified variant antibody; also called Y2K in CDR-H1 with G5S, R7I and A11S in CDR-L1

- binding result: binds
B2: D2E7 combination variant Y32K/SS-R30T (antibody, V domains shown)
VH: not shown
VL: B1 VL with I30T
notes: VL-SS backbone = G28S and A34S in CDR-L1 (Kabat); Expressed and purified variant antibody; also called Y2K in CDR-H1 with G5S, R7T and A11S in CDR-L1
